Experimental data taken from patent publication US20180244730A1 (OXFORD UNIVERSITY INNOVATION, published 2018).

B1: SnoopCatcher (designed binder)
chain: MGSSHHHHHHSSGLVPRGSHMKPLRGAVFSLQKQHPDYPDIYGAIDQNGTYQNVRTGEDGKLTFKNLSDGKYRLFENSEPAGYKPVQNKPIVAFQIVNGEVRDVTSIVPQDIPATYEFTNGKHYITNEPIPPK
notes: also called SnoopCatcher fused to a His-Tag

Legend:
SnoopCatcher [1] = target: B1; experiment: electrospray ionization mass spectrometry
SnoopTag-MBP [2] = experiment: mixing, SDS-PAGE with Coomassie staining (covalent isopeptide adduct)
SnoopTag-MBP [3] = experiment: mixing, SDS-PAGE with Coomassie staining
SnoopCatcher [4] = target: B1; experiment: mixing, SDS-PAGE with Coomassie staining
SpyCatcher = target: T1, SpyCatcher; experiment: mixing, SDS-PAGE with Coomassie staining
T1 construct: also called pDEST14-SpyCatcher (GenBank JQ478411, Addgene plasmid ID 35044)
T1 sequence (chain, as listed by the source): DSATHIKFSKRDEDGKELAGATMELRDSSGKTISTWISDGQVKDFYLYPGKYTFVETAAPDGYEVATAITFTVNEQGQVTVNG

KLGDIEFIKVNK [synthetic SnoopTag peptide]: binds (SnoopCatcher [1]).

B1: binds (SnoopTag-MBP [2]).

B2: RrgACatcher (designed binder)
chain: KLGDIEFIKVNKNDKKPLRGAVFSLQKQHPDYPDIYGAIDQNGTYQNVRTGEDGKLTFKNLSDGKYRLFENSEPAGYKPVQNKPIVAFQIVNGEVRDVTSIVPQ
B2: no binding (SnoopTag-MBP [3]); no binding (SnoopCatcher [4]); no binding (SpyCatcher).
